# ± gives the standard deviation of the averaged measurements.
# B1: library; a variant is named by its letters at N, in order (parent)
# chain: GCUGUCACCGGAAUACCAGCAUCGUCUUGAUGCCCUUGGAAGUCCGGUCUGAUGAGUCCNNNNNGGACGAAACAGC
# Tests used:
# theophylline [1] = variants of: B1; test: FACS-Seq fitted mean relative fluorescence mCherry/BFP without ligand (log10 relative fluorescence); higher = higher reporter protein expression; details: HEK293T, ligand present: no
# Method: (§1)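 Hammerhead (sTRSV) ribozyme switch libraries with a ligand aptamer grafted on stem I and a randomized N4-6 loop II, cloned into the 3' UTR of mCherry and transiently transfected into HEK293T cells; RNA-Seq 72 h post transfection with ligand added 1 h before transfection; RNA read count / plasmid DNA read count normalized to the non-cleaving sTRSVctl (x100), log10; sequences with >100 DNA reads. FACS-Seq: lentiviral library sorted into 6 bins after 48 h ligand, log-normal fit mean of mCherry/BFP scaled to controls. Printed sequences are partial switch sequences.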
# theophylline [2] = variants of: B1; test: normalized RNA/DNA level with ligand (relative to sTRSVctl = 100) (log10 (% of sTRSVctl)); higher = less ribozyme self-cleavage, higher mRNA level; details: ligand concentration (+) RNA-Seq: 5 mM, HEK293T, reporter: mCherry (pCS4076), ligand present: yes
# Method: as §1
# theophylline [3] = variants of: B1; test: normalized RNA/DNA level without ligand (relative to sTRSVctl = 100) (log10 (% of sTRSVctl)); higher = less ribozyme self-cleavage, higher mRNA level; details: HEK293T, reporter: mCherry (pCS4076), ligand present: no
# Method: as §1
# theophylline [4] = variants of: B1; test: FACS-Seq fitted mean relative fluorescence mCherry/BFP with ligand (log10 relative fluorescence); ligand concentration (+) FACS-Seq: 1 mM; higher = higher reporter protein expression; details: HEK293T, ligand present: yes
# Method: as §1
variant,measurement,setting,value
AUUUA,FACS-Seq fitted mean (log10),theophylline [1],0.734 ± 0.078
same,normalized RNA/DNA level with ligand (log10),theophylline [2],2 ± 0.11
same,normalized RNA/DNA level without ligand (log10),theophylline [3],1.8 ± 0.08
same,FACS-Seq fitted mean (log10),theophylline [4],0.834 ± 0.062
UACUG,FACS-Seq fitted mean (log10),theophylline [1],0.382 ± 0.044
same,normalized RNA/DNA level with ligand (log10),theophylline [2],1.9807 ± 0.00035
same,normalized RNA/DNA level without ligand (log10),theophylline [3],1.94 ± 0.04
same,FACS-Seq fitted mean (log10),theophylline [4],0.421 ± 0.12
AUAGC,FACS-Seq fitted mean (log10),theophylline [1],0.922 ± 0.023
same,normalized RNA/DNA level with ligand (log10),theophylline [2],1.94 ± 0.082
same,normalized RNA/DNA level without ligand (log10),theophylline [3],1.87 ± 0.12
same,FACS-Seq fitted mean (log10),theophylline [4],0.9641 ± 0.0048
GAGAA,FACS-Seq fitted mean (log10),theophylline [1],0.48 ± 0.017
same,normalized RNA/DNA level with ligand (log10),theophylline [2],1.91 ± 0.15
same,normalized RNA/DNA level without ligand (log10),theophylline [3],1.41 ± 0.11
same,FACS-Seq fitted mean (log10),theophylline [4],0.7667 ± 0.00081
UCUGA,FACS-Seq fitted mean (log10),theophylline [1],0.9 ± 0.11
same,normalized RNA/DNA level with ligand (log10),theophylline [2],2.04 ± 0.035
same,normalized RNA/DNA level without ligand (log10),theophylline [3],1.89 ± 0.056
same,FACS-Seq fitted mean (log10),theophylline [4],0.983 ± 0.1
AUCGC,FACS-Seq fitted mean (log10),theophylline [1],0.925 ± 0.082
same,normalized RNA/DNA level with ligand (log10),theophylline [2],1.977 ± 0.017
same,normalized RNA/DNA level without ligand (log10),theophylline [3],1.92 ± 0.11
same,FACS-Seq fitted mean (log10),theophylline [4],0.889 ± 0.11
CAAUU,FACS-Seq fitted mean (log10),theophylline [1],0.59 ± 0.019
same,normalized RNA/DNA level with ligand (log10),theophylline [2],2.02 ± 0.033
same,normalized RNA/DNA level without ligand (log10),theophylline [3],1.65 ± 0.096
same,FACS-Seq fitted mean (log10),theophylline [4],0.775 ± 0.021
UCAAA,FACS-Seq fitted mean (log10),theophylline [1],-0.0221 ± 0.095
same,normalized RNA/DNA level with ligand (log10),theophylline [2],1.97 ± 0.042
same,normalized RNA/DNA level without ligand (log10),theophylline [3],1.3 ± 0.091
same,FACS-Seq fitted mean (log10),theophylline [4],0.459 ± 0.023
AACGG,FACS-Seq fitted mean (log10),theophylline [1],0.852 ± 0.14
same,normalized RNA/DNA level with ligand (log10),theophylline [2],2 ± 0.049
same,normalized RNA/DNA level without ligand (log10),theophylline [3],1.8 ± 0.057
same,FACS-Seq fitted mean (log10),theophylline [4],0.998 ± 0.083
UAUGU,FACS-Seq fitted mean (log10),theophylline [1],0.685 ± 0.011
same,normalized RNA/DNA level with ligand (log10),theophylline [2],2.111 ± 0.021
same,normalized RNA/DNA level without ligand (log10),theophylline [3],1.97 ± 0.035
same,FACS-Seq fitted mean (log10),theophylline [4],0.621 ± 0.026
AAAAG,FACS-Seq fitted mean (log10),theophylline [1],0.487 ± 0.041
same,normalized RNA/DNA level with ligand (log10),theophylline [2],1.971 ± 0.00093
same,normalized RNA/DNA level without ligand (log10),theophylline [3],1.66 ± 0.028
same,FACS-Seq fitted mean (log10),theophylline [4],0.638 ± 0.13
UGCAU,FACS-Seq fitted mean (log10),theophylline [1],1.25 ± 0.16
same,normalized RNA/DNA level with ligand (log10),theophylline [2],1.92 ± 0.078
same,normalized RNA/DNA level without ligand (log10),theophylline [3],1.853 ± 0.018
same,FACS-Seq fitted mean (log10),theophylline [4],1.3 ± 0.1
CCGCA,FACS-Seq fitted mean (log10),theophylline [1],0.678 ± 0.047
same,normalized RNA/DNA level with ligand (log10),theophylline [2],2.08 ± 0.025
same,normalized RNA/DNA level without ligand (log10),theophylline [3],1.83 ± 0.043
same,FACS-Seq fitted mean (log10),theophylline [4],0.764 ± 0.0084
CCGGA,FACS-Seq fitted mean (log10),theophylline [1],0.978 ± 0.089
same,normalized RNA/DNA level with ligand (log10),theophylline [2],2.08 ± 0.027
same,normalized RNA/DNA level without ligand (log10),theophylline [3],1.9 ± 0.044
same,FACS-Seq fitted mean (log10),theophylline [4],1.05 ± 0.15
ACCUU,FACS-Seq fitted mean (log10),theophylline [1],1.31 ± 0.14
same,normalized RNA/DNA level with ligand (log10),theophylline [2],2.04 ± 0.038
same,normalized RNA/DNA level without ligand (log10),theophylline [3],1.95 ± 0.047
same,FACS-Seq fitted mean (log10),theophylline [4],1.27 ± 0.14
AGCAC,FACS-Seq fitted mean (log10),theophylline [1],0.712 ± 0.13
same,normalized RNA/DNA level with ligand (log10),theophylline [2],2.08 ± 0.088
same,normalized RNA/DNA level without ligand (log10),theophylline [3],1.91 ± 0.12
same,FACS-Seq fitted mean (log10),theophylline [4],0.669 ± 0.012
CACUU,FACS-Seq fitted mean (log10),theophylline [1],0.741 ± 0.014
same,normalized RNA/DNA level with ligand (log10),theophylline [2],2 ± 0.028
same,normalized RNA/DNA level without ligand (log10),theophylline [3],1.756 ± 0.0024
same,FACS-Seq fitted mean (log10),theophylline [4],1.028 ± 0.0013
CUGUU,FACS-Seq fitted mean (log10),theophylline [1],-0.291 ± 0.011
same,normalized RNA/DNA level with ligand (log10),theophylline [2],1.93 ± 0.061
same,normalized RNA/DNA level without ligand (log10),theophylline [3],1.81 ± 0.07
same,FACS-Seq fitted mean (log10),theophylline [4],-0.12 ± 0.062
UCCAG,FACS-Seq fitted mean (log10),theophylline [1],0.956 ± 0.042
same,normalized RNA/DNA level with ligand (log10),theophylline [2],2.01 ± 0.07
same,normalized RNA/DNA level without ligand (log10),theophylline [3],1.92 ± 0.1
same,FACS-Seq fitted mean (log10),theophylline [4],1.07 ± 0.13
UGCGC,FACS-Seq fitted mean (log10),theophylline [1],0.574 ± 0.085
same,normalized RNA/DNA level with ligand (log10),theophylline [2],2.04 ± 0.035
same,normalized RNA/DNA level without ligand (log10),theophylline [3],1.96 ± 0.15
same,FACS-Seq fitted mean (log10),theophylline [4],0.522 ± 0.1
ACUCU,FACS-Seq fitted mean (log10),theophylline [1],-0.437 ± 0.075
same,normalized RNA/DNA level with ligand (log10),theophylline [2],2.01 ± 0.052
same,normalized RNA/DNA level without ligand (log10),theophylline [3],1.93 ± 0.075
same,FACS-Seq fitted mean (log10),theophylline [4],-0.125 ± 0.13
UUGCU,FACS-Seq fitted mean (log10),theophylline [1],0.987 ± 0.11
same,normalized RNA/DNA level with ligand (log10),theophylline [2],1.94 ± 0.083
same,normalized RNA/DNA level without ligand (log10),theophylline [3],1.91 ± 0.03
same,FACS-Seq fitted mean (log10),theophylline [4],0.922 ± 0.042
UAUGA,FACS-Seq fitted mean (log10),theophylline [1],0.56 ± 0.0061
same,normalized RNA/DNA level with ligand (log10),theophylline [2],1.92 ± 0.051
same,normalized RNA/DNA level without ligand (log10),theophylline [3],1.57 ± 0.064
same,FACS-Seq fitted mean (log10),theophylline [4],0.686 ± 0.033
UUGUG,FACS-Seq fitted mean (log10),theophylline [1],0.172 ± 0.13
same,normalized RNA/DNA level with ligand (log10),theophylline [2],1.96 ± 0.09
same,normalized RNA/DNA level without ligand (log10),theophylline [3],1.868 ± 0.014
same,FACS-Seq fitted mean (log10),theophylline [4],0.266 ± 0.051
AAACU,FACS-Seq fitted mean (log10),theophylline [1],0.552 ± 0.079
same,normalized RNA/DNA level with ligand (log10),theophylline [2],1.97 ± 0.093
same,normalized RNA/DNA level without ligand (log10),theophylline [3],1.79 ± 0.033
same,FACS-Seq fitted mean (log10),theophylline [4],0.604 ± 0.0015
GCAGA,FACS-Seq fitted mean (log10),theophylline [1],0.899 ± 0.2
same,normalized RNA/DNA level with ligand (log10),theophylline [2],2.04 ± 0.03
same,normalized RNA/DNA level without ligand (log10),theophylline [3],1.66 ± 0.083
same,FACS-Seq fitted mean (log10),theophylline [4],0.875 ± 0.14
UCCCG,FACS-Seq fitted mean (log10),theophylline [1],1.07 ± 0.16
same,normalized RNA/DNA level with ligand (log10),theophylline [2],2.027 ± 0.0081
same,normalized RNA/DNA level without ligand (log10),theophylline [3],2.008 ± 0.0028
same,FACS-Seq fitted mean (log10),theophylline [4],1.055 ± 0.0097
CUACA,FACS-Seq fitted mean (log10),theophylline [1],0.702 ± 0.027
same,normalized RNA/DNA level with ligand (log10),theophylline [2],2.031 ± 0.0063
same,normalized RNA/DNA level without ligand (log10),theophylline [3],1.84 ± 0.021
same,FACS-Seq fitted mean (log10),theophylline [4],0.826 ± 0.11
CUUAA,FACS-Seq fitted mean (log10),theophylline [1],0.633 ± 0.018
same,normalized RNA/DNA level with ligand (log10),theophylline [2],1.98 ± 0.15
same,normalized RNA/DNA level without ligand (log10),theophylline [3],1.61 ± 0.14
same,FACS-Seq fitted mean (log10),theophylline [4],0.961 ± 0.12
AUCUA,FACS-Seq fitted mean (log10),theophylline [1],0.874 ± 0.15
same,normalized RNA/DNA level with ligand (log10),theophylline [2],1.99 ± 0.087
same,normalized RNA/DNA level without ligand (log10),theophylline [3],1.89 ± 0.12
same,FACS-Seq fitted mean (log10),theophylline [4],0.828 ± 0.069
UCACA,FACS-Seq fitted mean (log10),theophylline [1],0.565 ± 0.12
same,normalized RNA/DNA level with ligand (log10),theophylline [2],2 ± 0.027
same,normalized RNA/DNA level without ligand (log10),theophylline [3],1.48 ± 0.097
same,FACS-Seq fitted mean (log10),theophylline [4],0.896 ± 0.07
ACUGA,FACS-Seq fitted mean (log10),theophylline [1],0.423 ± 0.012
same,normalized RNA/DNA level with ligand (log10),theophylline [2],1.96 ± 0.19
same,normalized RNA/DNA level without ligand (log10),theophylline [3],1.68 ± 0.18
same,FACS-Seq fitted mean (log10),theophylline [4],0.613 ± 0.023
AAGAU,FACS-Seq fitted mean (log10),theophylline [1],0.919 ± 0.085
same,normalized RNA/DNA level with ligand (log10),theophylline [2],1.97 ± 0.06
same,normalized RNA/DNA level without ligand (log10),theophylline [3],1.69 ± 0.052
same,FACS-Seq fitted mean (log10),theophylline [4],1.06 ± 0.11
UCCUA,FACS-Seq fitted mean (log10),theophylline [1],0.918 ± 0.078
same,normalized RNA/DNA level with ligand (log10),theophylline [2],2 ± 0.13
same,normalized RNA/DNA level without ligand (log10),theophylline [3],2.007 ± 0.0046
same,FACS-Seq fitted mean (log10),theophylline [4],0.92 ± 0.058
CCGUA,FACS-Seq fitted mean (log10),theophylline [1],0.864 ± 0.056
same,normalized RNA/DNA level with ligand (log10),theophylline [2],2 ± 0.099
same,normalized RNA/DNA level without ligand (log10),theophylline [3],1.65 ± 0.12
same,FACS-Seq fitted mean (log10),theophylline [4],0.992 ± 0.043
UAUCG,FACS-Seq fitted mean (log10),theophylline [1],1.02 ± 0.21
same,normalized RNA/DNA level with ligand (log10),theophylline [2],2.07 ± 0.028
same,normalized RNA/DNA level without ligand (log10),theophylline [3],2 ± 0.07
same,FACS-Seq fitted mean (log10),theophylline [4],0.934 ± 0.064
